Data taken from article doi:10.1101/2022.01.19.476979 (bioRxiv, 2022).

Tests used:
[1] = biological target: FHH-tagged MAB21L4, recombinant purified (human, UniProt Q08AI8 1-447, RED-tris-NTA 2nd generation dye (Monolith His-Tag labeling kit)); test: MST
[2] = biological target: T1, FHH-tagged Siah1, recombinant purified (UniProt Q8IUQ4 1-282, RED-tris-NTA 2nd generation dye (Monolith His-Tag labeling kit)); test: MST
T1 sequence (looked up): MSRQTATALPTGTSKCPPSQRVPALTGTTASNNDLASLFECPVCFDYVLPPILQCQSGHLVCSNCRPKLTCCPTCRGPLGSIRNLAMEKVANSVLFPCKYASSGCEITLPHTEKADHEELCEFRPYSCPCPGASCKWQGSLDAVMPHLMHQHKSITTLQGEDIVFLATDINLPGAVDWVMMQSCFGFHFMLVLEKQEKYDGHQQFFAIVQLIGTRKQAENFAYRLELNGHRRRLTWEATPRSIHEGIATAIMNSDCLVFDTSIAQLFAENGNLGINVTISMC

FHH-tagged MAB21L4, recombinant purified, sequence (Q08AI8 whole entry): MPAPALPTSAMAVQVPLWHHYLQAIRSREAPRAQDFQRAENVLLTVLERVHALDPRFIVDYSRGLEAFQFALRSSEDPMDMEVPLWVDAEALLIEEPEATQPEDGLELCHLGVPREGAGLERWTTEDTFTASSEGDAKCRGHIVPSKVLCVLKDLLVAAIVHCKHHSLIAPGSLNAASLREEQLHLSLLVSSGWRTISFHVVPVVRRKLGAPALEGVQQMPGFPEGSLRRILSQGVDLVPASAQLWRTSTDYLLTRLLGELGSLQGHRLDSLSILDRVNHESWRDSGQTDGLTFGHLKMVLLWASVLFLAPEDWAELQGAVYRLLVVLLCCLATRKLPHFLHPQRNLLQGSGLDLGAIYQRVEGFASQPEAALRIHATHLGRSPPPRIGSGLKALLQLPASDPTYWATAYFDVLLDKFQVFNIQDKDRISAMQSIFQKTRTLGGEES

Kd [1]: 2.1 µM
Kd [2]: 9.8 µM
B1: n-terminus FLAG-tagged CacyBP, recombinant purified (natural protein, UniProt Q9HB71 1-228, looked up)
chain: MASEELQKDLEEVKVLLEKATRKRVRDALTAEKSKIETEIKNKMQQKSQKKAELLDNEKPAAVVAPITTGYTVKISNYGWDQSDKFVKIYITLTGVHQVPTENVQVHFTERSFDLLVKNLNGKSYSMIVNNLLKPISVEGSSKKVKTDTVLILCRKKVENTRWDYLTQVEKECKEKEKPSYDTETDPSEGLMNVLKKIYEDGDDDMKRTINKAWVESREKQAKGDTEF
